Measured values taken from the supplement of paper PMC11246515.
± gives the standard deviation of the averaged measurements.

Assay: total protein half-life in vivo (active degradation + dilution); higher = more stable protein
[1] = E. coli NCM3722 delta-clpP delta-lon delta-hslV, growth: N-lim chemostat, doubling time 6 h
[2] = E. coli NCM3722 delta-hslV, growth: N-lim chemostat, doubling time 6 h
[3] = E. coli NCM3722 delta-lon, growth: N-lim chemostat, doubling time 6 h
[4] = E. coli NCM3722 delta-smpB, growth: N-lim chemostat, doubling time 6 h
[5] = wild type E. coli NCM3722, growth: C-lim chemostat, doubling time 3 h
[6] = wild type E. coli NCM3722, growth: C-lim chemostat, doubling time 6 h
[7] = wild type E. coli NCM3722, growth: C-lim chemostat, doubling time 12 h
[8] = wild type E. coli NCM3722, growth: N-lim chemostat, doubling time 6 h
[9] = wild type E. coli NCM3722, growth: N-lim chemostat, doubling time 12 h
[10] = wild type E. coli NCM3722, growth: P-lim chemostat, doubling time 6 h
[11] = wild type E. coli NCM3722, growth: P-lim chemostat, doubling time 12 h
[12] = E. coli NCM3722 delta-clpP, growth: N-lim chemostat, doubling time 6 h

Sequence | total protein half-life in vivo [1] [h] | total protein half-life in vivo [2] [h] | total protein half-life in vivo [3] [h] | total protein half-life in vivo [4] [h] | total protein half-life in vivo [5] [h] | total protein half-life in vivo [6] [h] | total protein half-life in vivo [7] [h] | total protein half-life in vivo [8] [h] | total protein half-life in vivo [9] [h] | total protein half-life in vivo [10] [h] | total protein half-life in vivo [11] [h] | total protein half-life in vivo [12] [h]
MNYELLTTENAPVKMWTKGVPVEADARQQLINTAKMPFIFKHIAVMPDVHLGKGSTIGSVIPTKGAIIPAAVGVDIGCGMNALRTALTAEDLPENLAELRQAIETAVPHGRTTGRCKRDKGAWENPPVNVDAKWAELEAGYQWLTQKYPRFLNTNNYKHLGTLGTGNHFIEICLDESDQVWIMLHSGSRGIGNAIGTYFIDLAQKEMQETLETLPSRDLAYFMEGTEYFDDYLKAVAWAQLFASLNRDAMMENVVTALQSITQKTVRQPQTLAMEEINCHHNYVQKEQHFGEEIYVTRKGAVSARAGQYGIIPGSMGAKSFIVRGLGNEESFCSCSHGAGRVMSRTKAKKLFSVEDQIRATAHVECRKDAEVIDEIPMAYKDIDAVMAAQSDLVEVIYTLRQVVCVKG | 5.37 ± 0.74 | 1.46 ± 0.41 | 2.04 ± 0.29 | 1.46 ± 0.066 | 1.6 ± 0.19 | 2.78 ± 0.54 | 3.19 ± 0.052 | 1.73 | 1.67 ± 0.49 | 1.98 ± 0.61 | 3.92 ± 0.64 | 
MNYRIIPVTAFSQNCSLIWCEQTRLAALVDPGGDAEKIKQEVDDSGLTLMQILLTHGHLDHVGAAAELAQHYGVPVFGPEKEDEFWLQGLPAQSRMFGLEECQPLTPDRWLNEGDTISIGNVTLQVLHCPGHTPGHVVFFDDRAKLLISGDVIFKGGVGRSDFPRGDHNQLISSIKDKLLPLGDDVIFIPGHGPLSTLGYERLHNPFLQDEMPVW | 4.63 ± 0.21 | 3.09 ± 0.2 | 4.23 ± 0.31 | 3.17 ± 0.34 |  | 6.22 ± 1.2 | 9.88 ± 0.89 | 3.73 ± 0.55 | 4.36 ± 0.79 | 5.05 ± 0.39 | 9.46 ± 1.1 | 5.7 ± 1.5
MNYSHDNWSAILAHIGKPEELDTSARNAGALTRRREIRDAATLLRLGLAYGPGGMSLREVTAWAQLHDVATLSDVALLKRLRNAADWFGILAAQTLAVRAAVTGCTSGKRLRLVDGTAISAPGGGSAEWRLHMGYDPHTCQFTDFELTDSRDAERLDRFAQTADEIRIADRGFGSRPECIRSLAFGEADYIVRVHWRGLRWLTAEGMRFDMMGFLRGLDCGKNGETTVMIGNSGNKKAGAPFPARLIAVSLPPEKALISKTRLLSENRRKGRVVQAETLEAAGHVLLLTSLPEDEYSAEQVADCYRLRWQIELAFKRLKSLLHLDALRAKEPELAKAWIFANLLAAFLIDDIIQPSLDFPPRSAGSEKKN [P0CF93] | 5.49 ± 0.06 | 1.34 ± 0.12 | 1.85 ± 0.024 | 0.81 | 0.861 ± 0.23 | 1.69 ± 0.64 | 2.64 ± 0.44 | 1.62 ± 0.41 | 2.3 ± 0.26 | 0.485 | 11.9 | 0.94
MNYSLKQLKVFVTVAQEKSFSRAGERIGLSQSAVSHSVKELENHTGVRLLDRTTREVVLTDAGQQLALRLERLLDELNSTLRDTGRMGQQLSGKVRVAASQTISAHLIPQCIAESHRRYPDIQFVLHDRPQQWVMESIRQGDVDFGIVIDPGPVGDLQCEAILSEPFFLLCHRDSALAVEDYVPWQALQGAKLVLQDYASGSRPLIDAALARNGIQANIVQEIGHPATLFPMVAAGIGISILPALALPLPEGSPLVVKRITPVVERQLMLVRRKNRSLSTAAEALWDVVRDQGNALMAGREGDPLYQI [P0ACR7] | 6.06 ± 0.61 | 5.19 ± 0.28 |  |  | 2.84 |  | 12.5 ± 1.6 | 4.85 ± 0.15 | 9.2 ± 0.89 | 3.88 | 6.14 ± 1.9 | 4.84 ± 0.076
MPAENIVEVHHLKKSVGQGEHELSILTGVELVVKRGETIALVGESGSGKSTLLAILAGLDDGSSGEVSLVGQPLHNMDEEARAKLRAKHVGFVFQSFMLIPTLNALENVELPALLRGESSAESRNGAKALLEQLGLGKRLDHLPAQLSGGEQQRVALARAFNGRPDVLFADEPTGNLDRQTGDKIADLLFSLNREHGTTLIMVTHDLQLAARCDRCLRLVNGQLQEEA [P0A9T8] | 6.26 | 5.9 |  | 5.39 ± 0.17 | 3.23 ± 0.07 | 5.51 ± 0.64 | 11.2 ± 1.8 | 7.11 | 11.4 ± 0.56 | 5.46 ± 0.41 | 11.6 | 6.68
MPALDLIRPSVTAMRVIASVNADFARELKLPPHIRSLGLISADSDDVTYIAADEATKQAMVEVVYGRSLYAGAAHGPSPTAGEVLIMLGGPNPAEVRAGLDAMIAHIENGAAFQWANDAQDTAFLAHVVSRTGSYLSSTAGITLGDPMAYLVAPPLEATYGIDAALKSADVQLATYVPPPSETNYSAAFLTGSQAACKAACNAFTDAVLEIARNPIQRA | 6.04 ± 0.88 | 4.39 ± 0.31 | 4.68 ± 0.094 | 4.69 ± 0.1 | 3.11 ± 0.15 | 5.97 ± 0.72 | 11.95 ± 0.013 | 4.87 ± 0.41 | 7.99 | 6.1512 ± 0.003 | 11.4 ± 0.5 | 4.87
MPDAKKQGRSNKAMTFFVCFLAALAGLLFGLDIGVIAGALPFIADEFQITSHTQEWVVSSMMFGAAVGAVGSGWLSFKLGRKKSLMIGAILFVAGSLFSAAAPNVEVLILSRVLLGLAVGVASYTAPLYLSEIAPEKIRGSMISMYQLMITIGILGAYLSDTAFSYTGAWRWMLGVIIIPAILLLIGVFFLPDSPRWFAAKRRFVDAERVLLRLRDTSAEAKRELDEIRESLQVKQSGWALFKENSNFRRAVFLGVLLQVMQQFTGMNVIMYYAPKIFELAGYTNTTEQMWGTVIVGLTNVLATFIAIGLVDRWGRKPTLTLGFLVMAAGMGVLGTMMHIGIHSPSAQYFAIAMLLMFIVGFAMSAGPLIWVLCSEIQPLKGRDFGITCSTATNWIANMIVGATFLTMLNTLGNANTFWVYAALNVLFILLTLWLVPETKHVSLEHIERNLMKGRKLREIGAHD [P0AEP1] |  | 4.28 |  | 6.91 | 2.58 | 4.51 |  |  |  | 5.628 ± 0.028 | 9.86 | 4.26
MPHNPIRVVVGPANYFSHPGSFNHLHDFFTDEQLSRAVWIYGKRAIAAAQTKLPPAFGLPGAKHILFRGHCSESDVQQLAAESGDDRSVVIGVGGGALLDTAKALARRLGLPFVAVPTIAATCAAWTPLSVWYNDAGQALHYEIFDDANFMVLVEPEIILNAPQQYLLAGIGDTLAKWYEAVVLAPQPETLPLTVRLGINNAQAIRDVLLNSSEQALSDQQNQQLTQSFCDVVDAIIAGGGMVGGLGDRFTRVAAAHAVHNGLTVLPQTEKFLHGTKVAYGILVQSALLGQDDVLAQLTGAYQRFHLPTTLAELEVDINNQAEIDKVIAHTLRPVESIHYLPVTLTPDTLRAAFKKVESFKA | 4.77 ± 0.33 | 4.1 ± 0.11 | 4.91 ± 0.17 | 4.21 ± 0.15 | 2.67 ± 0.1 | 5.28 ± 0.084 | 9.15 ± 1.6 | 4.38 | 7.78 | 5.64 ± 0.28 | 11.2 ± 0.17 | 4.6 ± 0.098
